Where two headings read alike, the source gives them in different places.
How the values were obtained:
[1] = target: eGFP-tagged measles virus C protein, full length (human measles virus) (UniProt P03424); test: MST
[2] = target: eGFP-tagged measles virus C protein, full length (human measles virus) (UniProt P03424); test: MST; remark: listed apart in the source
[3] = target: measles virus (MeV) phosphoprotein (P), optimized construct (human measles virus) (UniProt P03422); test: cryo-EM structure

measles virus (MeV) N protein, monomeric (N_ΔN-arm) (domain or fragment)
Kd [1]: 4.57 µM
Kd [2]: 3.92 µM

measles virus (MeV) phosphoprotein (P), optimized construct (from UniProt P03422 1-507) (natural protein)
stoichiometry N [3]: 4
